Target: the molecule itself
Assay: SEC-MALS; 100 μl samples at 1-5 mg/ml on Superdex 200 10/300 GL in 20 mM Tris, 200 mM NaCl, 0.05 % LDAO pH 7.9, 0.6 ml/min

B1: TamB_(963-1138) (domain or fragment, E. coli K12, UniProt P39321 963-1138, looked up)
chain: MDVSPDVVFEATPNLFTLDGRVDVPWARIVVHDLPESAVGVSSDVVMLNDNLQPEEPKTASIPINSNLIVHVGNNVRIDAFGLKARLTGDLNVVQDKQGLGLNGQINIPEGRFHAYGQDLIVRKGELLFSGPPDQPYLNIEAIRNPDATEDDVIAGVRVTGLADEPKAEIFSDPAM
notes: whole TamB has 1,259 amino acids; Cloned into pET-21a via NdeI and XhoI; A selenomethionine-labelled form was used for phasing only; Construct as described by Josts et al., 2014
Question: Which “stoichiometry N” value does the source give for B1 here?
Answer: Its value is 2.
